Laboratory results from article PMC8113555.

What was measured:
[1] = target: TEBP-1-His5 (Caenorhabditis elegans) (UniProt O62329); assay: fluorescence polarization; conditions: FP: 20 mM HEPES pH 7.0, 100 mM NaCl, 5% glycerol, 20 nM probe, 10 min at RT; pull-down: 50 mM Tris/HCl pH 7.5, 150 mM NaCl, 0.5% NP-40, 5 mM MgCl2, 1 mM DTT …
[2] = target: TEBP-2-His5 (Caenorhabditis elegans) (UniProt Q22429); assay: fluorescence polarization; conditions: FP: 20 mM HEPES pH 7.0, 100 mM NaCl, 5% glycerol, 20 nM probe, 10 min at RT; pull-down: 50 mM Tris/HCl pH 7.5, 150 mM NaCl, 0.5% NP-40, 5 mM MgCl2, 1 mM DTT …
TEBP-2-His5 (Caenorhabditis elegans), sequence (Q22429 entry or part of it): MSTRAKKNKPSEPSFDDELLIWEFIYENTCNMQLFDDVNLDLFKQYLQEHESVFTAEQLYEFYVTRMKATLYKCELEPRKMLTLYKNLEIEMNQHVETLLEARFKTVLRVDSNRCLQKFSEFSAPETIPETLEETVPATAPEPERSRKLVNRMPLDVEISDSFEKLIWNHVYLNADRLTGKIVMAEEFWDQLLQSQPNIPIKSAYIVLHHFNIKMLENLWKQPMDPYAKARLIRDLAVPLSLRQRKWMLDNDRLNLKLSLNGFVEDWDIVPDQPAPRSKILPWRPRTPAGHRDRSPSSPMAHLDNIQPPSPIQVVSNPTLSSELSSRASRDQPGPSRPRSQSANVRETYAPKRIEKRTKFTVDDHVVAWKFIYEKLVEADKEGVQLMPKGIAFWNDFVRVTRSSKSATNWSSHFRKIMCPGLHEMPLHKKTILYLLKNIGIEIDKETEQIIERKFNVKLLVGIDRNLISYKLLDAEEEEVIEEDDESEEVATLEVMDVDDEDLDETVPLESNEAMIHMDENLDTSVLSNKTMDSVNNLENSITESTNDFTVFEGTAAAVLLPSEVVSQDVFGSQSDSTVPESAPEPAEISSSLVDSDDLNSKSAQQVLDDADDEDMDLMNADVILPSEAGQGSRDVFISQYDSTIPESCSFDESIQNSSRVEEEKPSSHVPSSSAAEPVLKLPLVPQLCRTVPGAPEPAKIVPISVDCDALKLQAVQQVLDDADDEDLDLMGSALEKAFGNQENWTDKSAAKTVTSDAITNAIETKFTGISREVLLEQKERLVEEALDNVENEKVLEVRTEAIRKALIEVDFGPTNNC

**Q.** How did the Kd [1] turn out when “CTGTTAGGCTTAGGCTTAG (double strand) [2.5x TTAGGC ds]” was run?
**A.** The Kd was 129 nM.

**Q.** What about the Kd [2] of the same sequence?
**A.** Its Kd is 37.8 nM.
